Test results published in paper PMC3627579.
Where two headings read alike, the source gives them in different places.

Tests used:
Test in all cases: ITC
TRBP-D12 [1] = molecular target: T1, TRBP-D12 (Homo sapiens, UniProt Q15633 19-228)
T1 sequence: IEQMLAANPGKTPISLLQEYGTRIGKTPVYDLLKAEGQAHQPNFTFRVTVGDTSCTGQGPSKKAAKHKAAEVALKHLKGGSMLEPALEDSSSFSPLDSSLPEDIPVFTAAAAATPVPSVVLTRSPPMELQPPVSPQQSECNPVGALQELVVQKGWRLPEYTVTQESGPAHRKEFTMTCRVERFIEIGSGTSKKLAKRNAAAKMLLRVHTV

TRBP-D2 = molecular target: T2, TRBP-D2 (Homo sapiens, UniProt Q15633 157-228)
T2 sequence: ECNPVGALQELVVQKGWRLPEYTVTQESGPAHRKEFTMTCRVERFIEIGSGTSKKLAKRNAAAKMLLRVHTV

TRBP-D12 [2] = molecular target: T1, TRBP-D12; remark: listed apart in the source
TRBP-D1 = molecular target: T3, TRBP-D1 (Homo sapiens, UniProt Q15633 19-99)
T3 sequence: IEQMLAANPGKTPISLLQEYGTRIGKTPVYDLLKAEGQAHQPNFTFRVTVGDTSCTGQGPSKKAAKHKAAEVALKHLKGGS

B1: miR-155/miR-155* (dsRNA)
RNA 1: GGAAUGCUAAUCGUGAUAGGCCU
RNA 2: GGCCUACAUAUUAGCAUUCCCA
B1 showed a Kd (TRBP-D12 [1]) of 1 ± 0.7 µM.

B2: pre-miR-155 (structured_RNA)
RNA: GGAAUGCUAAUCGUGAUAGGGGUUUUUGCCUCCAACUGACUCCUACAUAUUAGCAUUCCCA
With B2 the Kd (TRBP-D2) was 3.7 ± 0.5 µM, the Kd (TRBP-D12 [2]) was 0.5 µM and the Kd (TRBP-D1) was 15.4 ± 0.8 µM.
